Molecular target: biotinylated human DLL3 protein expressed as a human IgG1 fusion protein (human) (UniProt Q9NYJ7)
Experiment: Octet BLI; biotinylated huDLL3-IgG1 fusion on streptavidin tips; single 50 nM; conditioned medium

Sequence of biotinylated human DLL3 protein expressed as a human IgG1 fusion protein (human) (Q9NYJ7 other isoform, or with tags, fused parts or gaps): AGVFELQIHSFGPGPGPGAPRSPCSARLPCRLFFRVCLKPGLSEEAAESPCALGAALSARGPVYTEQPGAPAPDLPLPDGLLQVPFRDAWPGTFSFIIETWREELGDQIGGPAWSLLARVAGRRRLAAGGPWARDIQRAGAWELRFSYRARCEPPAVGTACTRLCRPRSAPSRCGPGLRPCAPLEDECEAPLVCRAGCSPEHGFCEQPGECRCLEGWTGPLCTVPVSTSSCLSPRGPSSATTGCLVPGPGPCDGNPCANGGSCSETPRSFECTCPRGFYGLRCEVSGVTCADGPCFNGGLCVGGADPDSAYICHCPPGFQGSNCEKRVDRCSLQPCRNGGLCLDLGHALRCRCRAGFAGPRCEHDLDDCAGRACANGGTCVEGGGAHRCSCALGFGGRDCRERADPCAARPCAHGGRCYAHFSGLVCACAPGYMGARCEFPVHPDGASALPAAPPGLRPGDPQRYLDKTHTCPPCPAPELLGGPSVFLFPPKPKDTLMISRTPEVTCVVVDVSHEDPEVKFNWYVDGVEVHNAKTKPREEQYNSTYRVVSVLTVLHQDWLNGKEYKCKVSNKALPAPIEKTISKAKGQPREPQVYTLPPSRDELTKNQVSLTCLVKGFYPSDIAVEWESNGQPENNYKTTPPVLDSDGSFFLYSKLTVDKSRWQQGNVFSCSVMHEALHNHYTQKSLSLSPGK

Row | Binder | Kd [nM]
1 | anti-DLL3 trispecific protein 2E02 (protein, part only; not given: anti-CD3 fragment and anti-albumin sdAb, part only) chain, part: EVQLVESGGGLVQPGGSLTLSCVASGSTSAINAMGWYRRAPGKQRELVAGISSDGSKVYVDSVKGRFTISRDNAKNSVYLQMNSLRAEDTAVYYCYYFRTVSGSSQRYWGQGTLVTVSSGGGGSGGGSGGGGSGGGSHHHHHH | 6
2 | anti-DLL3 trispecific protein 1H07 (protein, part only; not given: anti-CD3 fragment and anti-albumin sdAb, part only) chain, part: EVQLVESGGGLVQPGGSLTLSCVASGSTSSINAFGWYRRAPGKQRELVAGISSDGSKVYSDSVKGRFTISRDNAKNSVYLQMNSLRAEDTAVYYCYYFRTVSGSSMRYWGQGTLVTVSSGGGGSGGGSGGGGSGGGSHHHHHH | 6.2
3 | anti-DLL3 trispecific protein 2H07 (protein, part only; not given: anti-CD3 fragment and anti-albumin sdAb, part only) chain, part: EVQLVESGGGLVQPGGSLTLSCVASGSTSSINAVGWYRRAPGKQRELVAGISSDGSTVYADSVKGRFTISRDNAKNSVYLQMNSLRAEDTAVYYCYYFRTVSGHSMRYWGQGTLVTVSSGGGGSGGGSGGGGSGGGSHHHHHH | 6.1
4 | anti-DLL3 trispecific protein 2H04 (protein, part only; not given: anti-CD3 fragment and anti-albumin domain, part only) chain, part: EVQLVESGGGLVQPGGSLTLSCVASGSTSSINAMGWYRRAPGKQRELVAGISSDTSKVYADSVKGRFTISRDNAKNSVYLQMNSLRAEDTAVYYCYYFRTVSGSYMRYWGQGTLVTVSSGGGGSGGGSGGGGSGGGSHHHHHH | 6.3
5 | anti-DLL3 trispecific protein 1G01 (protein, part only; not given: CD3 binder and albumin binder, part only) chain, part: EVQLVESGGGLVQPGGSLTLSCVASGSTSSINAMAWYRRAPGKQRELVAGISSDGSKVYAESVKGRFTISRDNAKNSVYLQMNSLRAEDTAVYYCYYFRTVSGASMRYWGQGTLVTVSSGGGGSGGGSGGGGSGGGSHHHHHH | 6.6
6 | anti-DLL3 trispecific protein 2C08 (protein, part only; not given: anti-CD3 and anti-albumin domains, part only) chain, part: EVQLVESGGGLVQPGGSLTLSCVASGSTSRINAMGWYRRAPGKQRELVAGISSDGSKVYQDSVKGRFTISRDNAKNSVYLQMNSLRAEDTAVYYCYYFRRVSGSSMRYWGQGTLVTVSSGGGGSGGGSGGGGSGGGSHHHHHH | 6.1
7 | anti-DLL3 trispecific protein 1A010 (protein, part only; not given: anti-CD3 fragment and anti-albumin domain, part only) chain, part: EVQLVESGGGLVQPGGSLTLSCVASGSTSSINAYGWYRRAPGKQRELVAGISSDGSKVYADSVKGRFTISRDNAKNSVYLQMNSLRAEDTAVYYCYYFRTVYGSSMRYWGQGTLVTVSSGGGGSGGGSGGGGSGGGSHHHHHH | 6.5
8 | anti-DLL3 trispecific protein 2D04 (protein, part only; not given: CD3 binder and albumin binder, part only) chain, part: EVQLVESGGGLVQPGGSLTLSCVASGSTSSINAVGWYRRAPGKQRELVAGISSDGSKVYRDSVKGRFTISRDNAKNSVYLQMNSLRAEDTAVYYCYYFRTVQGSSMRYWGQGTLVTVSSGGGGSGGGSGGGGSGGGSHHHHHH | 6.2
9 | anti-DLL3 trispecific protein 2H010 (protein, part only; not given: CD3 fragment and albumin sdAb, part only) chain, part: EVQLVESGGGLVQPGGSLTLSCVASGSTSSINAMGWYRRAPGKQRELAAGISSDGSKLYADSVKGRFTISRDNAKNSVYLQMNSLRAEDTAVYYCYYFRTVSGSSMRYWGQGTLVTVSSGGGGSGGGSGGGGSGGGSHHHHHH | 6.4
10 | anti-DLL3 trispecific protein 1C02 (protein, part only; not given: anti-CD3 fragment and anti-albumin sdAb, part only) chain, part: EVQLVESGGGLVQPGGSLTLSCVASGSTSSINAMAWYRRAPGKQRELVAGISSDGSKVYSDSVKGRFTISRDNAKNSVYLQMNSLRAEDTAVYYCYYFRTVSGSSMRSWGQGTLVTVSSGGGGSGGGSGGGGSGGGSHHHHHH | 6.2
11 | anti-DLL3 trispecific protein 1G011 (protein, part only; not given: CD3 binder and albumin binder, part only) chain, part: EVQLVESGGGLVQPGGSLTLSCVASGSTSSINAMAWYRRAPGKQRELVAGISSDGSKVYADSVKGRFTISRDNAKNSVYLQMNSLRAEDTAVYYCYYFKTVSGSSMRYWGQGTLVTVSSGGGGSGGGSGGGGSGGGSHHHHHH | 6.8
12 | anti-DLL3 trispecific protein 1H011 (protein, part only; not given: anti-CD3 and anti-albumin domains, part only) chain, part: EVQLVESGGGLVQPGGSLTLSCVASGSTSSINAIGWYRRAPGKQRELVAGISSDGSKVYNDSVKGRFTISRDNAKNSVYLQMNSLRAEDTAVYYCYYFRTQSGSSMRYWGQGTLVTVSSGGGGSGGGSGGGGSGGGSHHHHHH | 6.2
13 | anti-DLL3 trispecific protein 2D06 (protein, part only; not given: anti-CD3 and anti-albumin domains, part only) chain, part: EVQLVESGGGLVQPGGSLTLSCVASGSTSSINAMGWYRRAPGKQRELVAGISSDGSKVYSDSVKGRFTISRDNAKNSVYLQMNSLRAEDTAVYYCYYFRTVSGSSSRYWGQGTLVTVSSGGGGSGGGSGGGGSGGGSHHHHHH | 6.6
14 | anti-DLL3 trispecific protein 2C06 (protein, part only; not given: CD3 binder and albumin binder, part only) chain, part: EVQLVESGGGLVQPGGSLTLSCVASGSTNSINAMGWYRRAPGKQRELVAGISSDGSKVYKDSVKGRFTISRDNAKNSVYLQMNSLRAEDTAVYYCYYYRTVSGSSMRYWGQGTLVTVSSGGGGSGGGSGGGGSGGGSHHHHHH | 6.7
15 | anti-DLL3 trispecific protein 2F09 (protein, part only; not given: anti-CD3 fragment and anti-albumin domain, part only) chain, part: EVQLVESGGGLVQPGGSLTLSCVASGSTSSINAMAWYRRAPGKQRELVAGISSDGSKLYADSVKGRFTISRDNAKNSVYLQMNSLRAEDTAVYYCYYFRTVSGSSMRYWGQGTLVTVSSGGGGSGGGSGGGGSGGGSHHHHHH | 6.5
16 | anti-DLL3 trispecific protein 2C04 (protein, part only; not given: anti-CD3 fragment and anti-albumin sdAb, part only) chain, part: EVQLVESGGGLVQPGGSLTLSCVASGSTSSRNAMGWYRRAPGKQRELVAGISSDGSKLYADSVKGRFTISRDNAKNSVYLQMNSLRAEDTAVYYCYYFRTVLGSSMRYWGQGTLVTVSSGGGGSGGGSGGGGSGGGSHHHHHH | 6.8

Row | Binder | Kd [nM]
17 | anti-DLL3 trispecific protein 2G07 (protein, part only; not given: anti-CD3 and anti-albumin domains, part only) chain, part: EVQLVESGGGLVQPGGSLTLSCVASGSTSSINAMAWYRRAPGKQRELVAGISSDGSKVYADSVKGRFTISRDNAKNSVYLQMNSLRAEDTAVYYCYYFRTVQGSSMRYWGQGTLVTVSSGGGGSGGGSGGGGSGGGSHHHHHH | 6.5
18 | anti-DLL3 trispecific protein 2B02 (protein, part only; not given: CD3 binder and albumin binder, part only) chain, part: EVQLVESGGGLVQPGGSLTLSCVASGSTSSINAMAWYRRAPGKQRELVAGISSDGSKVYADSVKGRFTISRDNAKNSVYLQMNSLRAEDTAVYYCYYFRTKSGSSMRYWGQGTLVTVSSGGGGSGGGSGGGGSGGGSHHHHHH | 6.6
19 | anti-DLL3 trispecific protein 1F010 (protein, part only; not given: anti-CD3 fragment and anti-albumin sdAb, part only) chain, part: EVQLVESGGGLVQPGGSLTLSCVASGSTSRINAMGWYRRAPGKQRELVAGISSDGSKVYKDSVKGRFTISRDNAKNSVYLQMNSLRAEDTAVYYCYYFRTVSGSSMRYWGQGTLVTVSSGGGGSGGGSGGGGSGGGSHHHHHH | 6.3
20 | anti-DLL3 trispecific protein 1C03 (protein, part only; not given: anti-CD3 and anti-albumin domains, part only) chain, part: EVQLVESGGGLVQPGGSLTLSCVASGSTSSINAMAWYRRAPGKQRELVAGISSDNSKVYADSVKGRFTISRDNAKNSVYLQMNSLRAEDTAVYYCYYFRTVGGSSMRYWGQGTLVTVSSGGGGSGGGSGGGGSGGGSHHHHHH | 6.1
21 | anti-DLL3 trispecific protein 2C07 (protein, part only; not given: anti-CD3 and anti-albumin domains, part only) chain, part: EVQLVESGGGLVQPGGSLTLSCVASGSTSSINAMAWYRRAPGKQRELVAGISSDGSKVYADSVKGRFTISRDNAKNSVYLQMNSLRAEDTAVYYCYYFRSVSGSSMRYWGQGTLVTVSSGGGGSGGGSGGGGSGGGSHHHHHH | 6.2
22 | anti-DLL3 trispecific protein 1A03 (protein, part only; not given: CD3 fragment and albumin sdAb, part only) chain, part: EVQLVESGGGLVQPGGSLTLSCVASGSTSSINAMAWYRRAPGKQRELVAGISSDGSKVYADSVKGRFTISRDNAKNSVYLQMNSLRAEDTAVYYCYYFRTVSGSSSRYWGQGTLVTVSSGGGGSGGGSGGGGSGGGSHHHHHH | 6.3
23 | anti-DLL3 trispecific protein 2C09 (protein, part only; not given: anti-CD3 and anti-albumin domains, part only) chain, part: EVQLVESGGGLVQPGGSLTLSCVPSGSTSNINAMGWYRRAPGKQRELPAGISSDGTKIYADSAKVPFTITRDNAKNSVYLQMNSLRAEDTAVYYCYYFRTVSGTSMRYWGQGTLVTVSSGGGGSGGGSGGGGSGGGSHHHHHH | 6.4
24 | anti-DLL3 trispecific protein 4C011 (protein, part only; not given: anti-CD3 and anti-albumin domains, part only) chain, part: EVQLVESGGGLVQPGGSLTLSCAASGSRVSFLSMAWYRQAPGKKRELVAGISADGSTVYIDSVKGRFTISRDNAKNSVYLQMNSLRAEDTAVYYCYAYRWTRRYTYWGQGTLVTVSSGGGGSGGGSGGGGSGGGSHHHHHH | 6
25 | anti-DLL3 trispecific protein 4C06 (protein, part only; not given: CD3 fragment and albumin sdAb, part only) chain, part: EVQLVESGGGLVQPGGSLTLSCAASNSSVSKLSMAWYRQAPGKKRELVAGISADGSTAYIDSVKGRFTISRDNAKNSVYLQMNSLRAEDTAVYYCYAYRWSTRYTYWGQGTLVTVSSGGGGSGGGSGGGGSGGGSHHHHHH | 6.8
26 | anti-DLL3 trispecific protein 4D05 (protein, part only; not given: anti-CD3 fragment and anti-albumin domain, part only) chain, part: EVQLVESGGGLVQPGGSLTLSCAASGSSSSFLSMAWYRQAPGKKRELVAGISADGSTVYIDSVKGRFTISRDNAKNSVYLQMNSLRAEDTAVYYCYAYRWTTRRTYWGQGTLVTVSSGGGGSGGGSGGGGSGGGSHHHHHH | 6.5
27 | anti-DLL3 trispecific protein 3A011 (protein, part only; not given: CD3 binder and albumin binder, part only) chain, part: EVQLVESGGGLVQPGGSLTLSCAASGSSVSFLSLAWYRQAPGKKRELVAGISTDGSTDYIDSVKGRFTISRDNAKNSVYLQMNSLRAEDTAVYYCYAYRWRTRYTYWGQGTLVTVSSGGGGSGGGSGGGGSGGGSHHHHHH | 6.8
28 | anti-DLL3 trispecific protein 4C03 (protein, part only; not given: CD3 fragment and albumin sdAb, part only) chain, part: EVQLVESGGGLVQPGGSLTLSCAASGSKVSFMSMAWYRQAPGKKRELVAGISVDGSTDYIDSVKGRFTISRDNAKNSVYLQMNSLRAEDTAVYYCYAYRWRTRYTYWGQGTLVTVSSGGGGSGGGSGGGGSGGGSHHHHHH | 6.6
29 | anti-DLL3 trispecific protein 3A09 (protein, part only; not given: CD3 binder and albumin binder, part only) chain, part: EVQLVESGGGLVQPGGSLTLSCAASGSSVSFLSMAWYRQAPGKKRELVAGISADGSVDYIDSVKGRFTISRDNAKNSVYLQMNSLRAEDTAVYYCYAYRWTTRYIYWGQGTLVTVSSGGGGSGGGSGGGGSGGGSHHHHHH | 6.3
30 | anti-DLL3 trispecific protein 4H04 (protein, part only; not given: anti-CD3 fragment and anti-albumin sdAb, part only) chain, part: EVQLVESGGGLVQPGGSLTLSCAASGSSVKFLSMAWYRQAPGKKRELVAGVSADGSTDYIDSVKGRFTISRDNAKNSVYLQMNSLRAEDTAVYYCYAYEWTTRYTYWGQGTLVTVSSGGGGSGGGSGGGGSGGGSHHHHHH | 6.1
31 | anti-DLL3 trispecific protein 4C02 (protein, part only; not given: CD3 fragment and albumin sdAb, part only) chain, part: EVQLVESGGGLVQPGGSLTLSCAASGSKVSFLSMAWYRQAPGKKRELVAGISADGSTTYIDSVKGRFTISRDNAKNSVYLQMNSLRAEDTAVYYCYAYRWTTRFTYWGQGTLVTVSSGGGGSGGGSGGGGSGGGSHHHHHH | 6.8

— patent US20200095340A1
